{
  "source": "patent US20160200814A1",
  "about": "“IMMUNORECEPTOR MODULATION FOR TREATING CANCER AND VIRAL INFECTIONS” (THE COUNCIL OF THE QUEENSLAND INSTITUTE OF MEDICAL RESEARCH, priority 2013, published 2016)",
  "molecules": {"B1": {"name": "recombinant CD96: recombinant CD96 protein used at 50 μg/ml as competitor of DNAM-1-Fc binding (protein, UniProt P40200 22-585, looked up)", "T-cell surface protein tactile": "VWEKTVNTEENVYATLGSDVNLTCQTQTVGFFVQMQWSKVTNKIDLIAVYHPQYGFYCAYGRPCESLVTFTETPENGSKWTLHLRNMSCSVSGRYECMLVLYPEGIQTKIYNLLIQTHVTADEWNSNHTIEIEINQTLEIPCFQNSSSKISSEFTYAWSVENSSTDSWVLLSKGIKEDNGTQETLISQNHLISNSTLLKDRVKLGTDYRLHLSPVQIFDDGRKFSCHIRVGPNKILRSSTTVKVFAKPEIPVIVENNSTDVLVERRFTCLLKNVFPKANITWFIDGSFLHDEKEGIYITNEERKGKDGFLELKSVLTRVHSNKPAQSDNLTIWCMALSPVPGNKVWNISSEKITFLLGSEISSTDPPLSVTESTLDTQPSPASSVSPARYPATSSVTLVDVSALRPNTTPQPSNSSMTTRGFNYPWTSSGTDTKKSVSRIPSETYSSSPSGAGSTLHDNVFTSTARAFSEVPTTANGSTKTNHVHITGIVVNKPKDGMSWPVIVAALLFCCMILFGLGVRKWCQYQKEIMERPPPFKPPPPPIKYTCIQEPNESDLPYHEMETL"}},
  "molecular_target": "T1, CD155 at the cell surface of B16F10 (Mus musculus, UniProt F6V4I7)",
  "T1 construct": "at the cell surface of B16F10 cells; endogenous in cells; host or cells: B16F10 melanoma cells",
  "T1 sequence (F6V4I7 29-408)": "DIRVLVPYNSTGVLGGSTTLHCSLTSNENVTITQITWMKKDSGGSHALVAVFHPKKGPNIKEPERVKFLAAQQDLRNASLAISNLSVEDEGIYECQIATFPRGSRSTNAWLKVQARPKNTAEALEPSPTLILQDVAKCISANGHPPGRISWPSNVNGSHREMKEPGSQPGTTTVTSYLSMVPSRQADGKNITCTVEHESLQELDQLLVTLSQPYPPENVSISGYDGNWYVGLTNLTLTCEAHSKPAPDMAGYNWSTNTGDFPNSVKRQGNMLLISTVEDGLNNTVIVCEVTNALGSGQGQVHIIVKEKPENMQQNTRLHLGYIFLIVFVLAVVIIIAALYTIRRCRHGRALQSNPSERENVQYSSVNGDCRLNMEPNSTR",
  "test": "Binding of DNAM-1-Fc (AF-647) at the cell surface of B16F10 cells, flow cytometry",
  "settings": "FIG. 3c; DNAM-1-Fc AF-647 0.5-20 μg/ml; competitor 50 μg/ml; versus control Ig",
  "from_the_text": "FIG. 3: CD96 limits NK cell-dependent tumor immunosurveillance. a, b. CD96 and DNAM-1 have an opposite role in the control of B16F10 metastasis. a. 2×10^5 B16F10 cells were intravenously injected into WT, CD96^−/−, DNAM-1^−/− and DNAM-1^−/− CD96^−/− mice and metastatic burden was quantified in the lungs after 14 days. Representative experiment out of 3. b. Pictures showing the lung of WT and CD96^−/− mice two weeks after the injection of 2×10^5 and 5×10^5 B16F10 cells. Representative experiment out of two. c. […] The binding of DNAM-1-Fc labeled with AF-647 (0.5-20 μg/ml) at the cell surface of B16F10 cells was analyzed in the presence of 50 μg/ml of control Ig, recombinant CD96 or TIGIT-Fc. The FACS histograms and the mean±SD of triplicate wells from one representative experiment out of 3 are shown. d. A 4 hr^51 Cr release assay was performed between B16F10 cells and IL-2-activated NK cells from WT, DNAM-1^−/− and CD96^−/− mice at the indicated effector target ratios. Solid circles represent WT NK cells, open circles represent CD96^−/− NK cells and solid squares represents DNAM-1^−/− NK cells. e-h. CD96 and DNAM-1 have an opposite role in the immunosurveillance of MCA induced fibrosarcoma mediated by NK cells. e-h Groups of 15-30 male, WT, DNAM-1^−/− and CD96^−/− and DNAM-1^−/− CD96^−/− mice were injected with MCA (100 μg/mouse). […]",
  "data": [
    {"molecule": "B1", "values": [
      {"measurement": "competition with DNAM-1-Fc binding to CD155", "value": "compete with DNAM-1 for the binding of CD155 at the cell surface of B16F10"}
    ]}
  ]
}
